{"source": "patent US20100048462A1", "about": "“TRUNCATED PTH PEPTIDES WITH A CYCLIC CONFORMATION” (Zealand Pharma A/S, priority 2006, published 2010)", "binders": {"B1": {"name": "H-Ac5c-Val-Aib-Glu-Ile-Gln-Leu-Val-His-Gln-Har-Ala-Lys( )-Trp-Leu-Asn-Asp( )-NH2 (peptide)", "chain": "H-[Ac5c]V[Aib]EIQLVHQ[hArg]AKWLND-NH2", "modifications": "lactam 13-17", "SMILES": "CC[C@H](C)[C@H](NC(=O)[C@H](CCC(=O)O)NC(=O)C(C)(C)NC(=O)[C@@H](NC(=O)C1(N)CCCC1)C(C)C)C(=O)N[C@@H](CCC(N)=O)C(=O)N[C@@H](CC(C)C)C(=O)N[C@H](C(=O)N[C@@H](Cc1c[nH]cn1)C(=O)N[C@@H](CCC(N)=O)C(=O)N[C@@H](CCCCNC(=N)N)C(=O)N[C@@H](C)C(=O)N[C@H]1CCCCNC(=O)C[C@@H](C(N)=O)NC(=O)[C@H](CC(N)=O)NC(=O)[C@H](CC(C)C)NC(=O)[C@H](Cc2c[nH]c3ccccc23)NC1=O)C(C)C"}, "B2": {"name": "H-Ac5c-Val-Aib-Glu-Ile-Gln-Leu-Met-His-Gln-Har-Ala-Cys( )-Trp-Leu-Asn-Cys( )-NH2 (peptide)", "chain": "H-[Ac5c]V[Aib]EIQLMHQ[hArg]ACWLNC-NH2", "modifications": "disulfide 13-17", "SMILES": "CC[C@H](C)[C@H](NC(=O)[C@H](CCC(=O)O)NC(=O)C(C)(C)NC(=O)[C@@H](NC(=O)C1(N)CCCC1)C(C)C)C(=O)N[C@@H](CCC(N)=O)C(=O)N[C@@H](CC(C)C)C(=O)N[C@@H](CCSC)C(=O)N[C@@H](Cc1c[nH]cn1)C(=O)N[C@@H](CCC(N)=O)C(=O)N[C@@H](CCCCNC(=N)N)C(=O)N[C@@H](C)C(=O)N[C@H]1CSSC[C@@H](C(N)=O)NC(=O)[C@H](CC(N)=O)NC(=O)[C@H](CC(C)C)NC(=O)[C@H](Cc2c[nH]c3ccccc23)NC1=O"}, "B3": {"name": "H-Ac5c-V-Aib-…-NH2 (peptide)", "chain": "H-[Ac5c]V[Aib]EIQLMHNLGKHLNS-NH2", "SMILES": "CC[C@H](C)[C@H](NC(=O)[C@H](CCC(=O)O)NC(=O)C(C)(C)NC(=O)[C@@H](NC(=O)C1(N)CCCC1)C(C)C)C(=O)N[C@@H](CCC(N)=O)C(=O)N[C@@H](CC(C)C)C(=O)N[C@@H](CCSC)C(=O)N[C@@H](Cc1c[nH]cn1)C(=O)N[C@@H](CC(N)=O)C(=O)N[C@@H](CC(C)C)C(=O)NCC(=O)N[C@@H](CCCCN)C(=O)N[C@@H](Cc1c[nH]cn1)C(=O)N[C@@H](CC(C)C)C(=O)N[C@@H](CC(N)=O)C(=O)N[C@@H](CO)C(N)=O"}, "B4": {"name": "H-Ac5c-Val-Aib-Glu-Ile-Gln-Leu-Leu-His-Gln-Har-Ala-Dab( )-Trp-Leu-Asn-Asp( )-NH2 (peptide)", "chain": "H-[Ac5c]V[Aib]EIQLLHQ[hArg]A[Dab]WLND-NH2", "modifications": "lactam 13-17", "SMILES": "CC[C@H](C)[C@H](NC(=O)[C@H](CCC(=O)O)NC(=O)C(C)(C)NC(=O)[C@@H](NC(=O)C1(N)CCCC1)C(C)C)C(=O)N[C@@H](CCC(N)=O)C(=O)N[C@@H](CC(C)C)C(=O)N[C@@H](CC(C)C)C(=O)N[C@@H](Cc1c[nH]cn1)C(=O)N[C@@H](CCC(N)=O)C(=O)N[C@@H](CCCCNC(=N)N)C(=O)N[C@@H](C)C(=O)N[C@H]1CCNC(=O)C[C@@H](C(N)=O)NC(=O)[C@H](CC(N)=O)NC(=O)[C@H](CC(C)C)NC(=O)[C@H](Cc2c[nH]c3ccccc23)NC1=O"}, "B5": {"name": "H-Ac5c-Val-Aib-Glu-Ile-Gln-Leu-Met-His-Gln-Har-Ala-Lys-Trp-Leu-Asn-Asp-NH2 (peptide)", "chain": "H-[Ac5c]V[Aib]EIQLMHQ[hArg]AKWLND-NH2", "SMILES": "CC[C@H](C)[C@H](NC(=O)[C@H](CCC(=O)O)NC(=O)C(C)(C)NC(=O)[C@@H](NC(=O)C1(N)CCCC1)C(C)C)C(=O)N[C@@H](CCC(N)=O)C(=O)N[C@@H](CC(C)C)C(=O)N[C@@H](CCSC)C(=O)N[C@@H](Cc1c[nH]cn1)C(=O)N[C@@H](CCC(N)=O)C(=O)N[C@@H](CCCCNC(=N)N)C(=O)N[C@@H](C)C(=O)N[C@@H](CCCCN)C(=O)N[C@@H](Cc1c[nH]c2ccccc12)C(=O)N[C@@H](CC(C)C)C(=O)N[C@@H](CC(N)=O)C(=O)N[C@@H](CC(=O)O)C(N)=O"}, "B6": {"name": "H-Ac5c-Val-Aib-Glu-Ile-Gln-Leu-Met-His-Gln-Har-Ala-Lys-Trp-NH2 (peptide)", "chain": "H-[Ac5c]V[Aib]EIQLMHQ[hArg]AKW-NH2", "SMILES": "CC[C@H](C)[C@H](NC(=O)[C@H](CCC(=O)O)NC(=O)C(C)(C)NC(=O)[C@@H](NC(=O)C1(N)CCCC1)C(C)C)C(=O)N[C@@H](CCC(N)=O)C(=O)N[C@@H](CC(C)C)C(=O)N[C@@H](CCSC)C(=O)N[C@@H](Cc1c[nH]cn1)C(=O)N[C@@H](CCC(N)=O)C(=O)N[C@@H](CCCCNC(=N)N)C(=O)N[C@@H](C)C(=O)N[C@@H](CCCCN)C(=O)N[C@@H](Cc1c[nH]c2ccccc12)C(N)=O"}}, "assay_in_all_cases": "cell-based or functional assay", "key": {"CYP2D6": {"target": "CYP2D6 (Homo sapiens, UniProt P10635)", "sequence (P10635 whole entry)": "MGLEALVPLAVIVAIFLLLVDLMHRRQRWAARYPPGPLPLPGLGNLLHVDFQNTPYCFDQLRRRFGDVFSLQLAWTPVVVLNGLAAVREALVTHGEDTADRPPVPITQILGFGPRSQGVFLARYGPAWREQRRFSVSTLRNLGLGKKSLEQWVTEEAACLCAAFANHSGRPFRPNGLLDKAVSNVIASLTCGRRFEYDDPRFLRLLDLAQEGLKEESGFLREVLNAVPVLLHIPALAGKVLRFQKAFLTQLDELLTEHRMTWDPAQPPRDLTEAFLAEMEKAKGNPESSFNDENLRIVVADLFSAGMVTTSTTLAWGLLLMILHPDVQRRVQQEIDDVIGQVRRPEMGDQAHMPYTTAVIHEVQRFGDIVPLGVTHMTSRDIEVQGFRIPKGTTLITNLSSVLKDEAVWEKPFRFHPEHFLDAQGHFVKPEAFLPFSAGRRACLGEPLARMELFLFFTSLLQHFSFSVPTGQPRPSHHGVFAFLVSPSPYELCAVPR"}, "Saos-2 PTH1R": {"target": "Saos-2 PTH1R (UniProt Q03431)", "sequence (Q03431 27-593 limits assumed)": "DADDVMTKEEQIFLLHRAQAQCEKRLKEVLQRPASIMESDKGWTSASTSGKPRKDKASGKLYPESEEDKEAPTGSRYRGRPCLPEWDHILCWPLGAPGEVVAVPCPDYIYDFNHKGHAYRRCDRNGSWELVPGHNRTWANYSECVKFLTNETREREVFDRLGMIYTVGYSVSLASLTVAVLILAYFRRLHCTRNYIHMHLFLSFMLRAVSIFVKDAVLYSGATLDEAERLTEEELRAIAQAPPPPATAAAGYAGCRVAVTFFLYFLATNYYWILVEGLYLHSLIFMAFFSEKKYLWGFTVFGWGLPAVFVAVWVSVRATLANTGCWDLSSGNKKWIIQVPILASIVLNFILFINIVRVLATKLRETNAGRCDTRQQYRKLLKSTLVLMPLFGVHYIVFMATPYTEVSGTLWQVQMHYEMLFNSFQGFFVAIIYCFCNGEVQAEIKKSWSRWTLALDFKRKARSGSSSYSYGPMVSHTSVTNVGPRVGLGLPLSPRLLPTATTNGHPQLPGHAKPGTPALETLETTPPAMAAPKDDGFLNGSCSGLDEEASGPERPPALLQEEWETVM"}, "[1]": {"target": "PTH receptor 1 on MC3T3-E1 cells (murine) (UniProt P41593)", "sequence (P41593 27-591)": "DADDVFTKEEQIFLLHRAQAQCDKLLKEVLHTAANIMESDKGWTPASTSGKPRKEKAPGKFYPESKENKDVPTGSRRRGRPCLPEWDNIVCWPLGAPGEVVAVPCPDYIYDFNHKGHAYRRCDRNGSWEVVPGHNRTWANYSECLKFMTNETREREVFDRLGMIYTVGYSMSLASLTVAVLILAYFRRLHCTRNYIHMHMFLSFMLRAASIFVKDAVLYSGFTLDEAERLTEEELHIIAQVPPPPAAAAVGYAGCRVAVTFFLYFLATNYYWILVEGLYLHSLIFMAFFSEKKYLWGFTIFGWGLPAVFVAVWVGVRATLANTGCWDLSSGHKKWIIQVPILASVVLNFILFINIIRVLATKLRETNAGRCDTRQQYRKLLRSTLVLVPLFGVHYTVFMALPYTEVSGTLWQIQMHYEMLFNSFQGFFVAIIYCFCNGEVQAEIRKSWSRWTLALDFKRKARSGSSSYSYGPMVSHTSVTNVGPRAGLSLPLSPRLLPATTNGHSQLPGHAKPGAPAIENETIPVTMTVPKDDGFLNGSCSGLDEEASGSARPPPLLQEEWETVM"}}, "note": "Read-outs that look alike come from different tables or passages of the source. Bridge positions count the residues as written; N and C are the ends. Square brackets hold non-standard residues; d marks the D form. hArg = N=C(N)NCCCC[C@H](N)C(=O)O; Ac5c = NC1(C(=O)O)CCCC1; Dab = NCC[C@H](N)C(=O)O; Aib = CC(C)(N)C(=O)O"}
{"binder": "B1", "values": [{"measurement": "CYP2D6 activity (% of vehicle), dextrorphan formation rate in human liver microsomes, 10 µM peptide", "setting": "CYP2D6", "result": "92 % of vehicle"}, {"measurement": "Emax, cAMP efficacy assay in Saos-2 cells (21T, trifluoroacetate salt) (relative to control (SEQ ID NO: 32))", "setting": "Saos-2 PTH1R", "result": 1.4}, {"measurement": "pEC50, cAMP efficacy assay in Saos-2 cells (21T, trifluoroacetate salt)", "setting": "Saos-2 PTH1R", "result": "6.82 -log(M)"}]}
{"binder": "B2", "values": [{"measurement": "CYP2D6 activity (% of vehicle), dextrorphan formation rate in human liver microsomes, 10 µM peptide", "setting": "CYP2D6", "result": "85 % of vehicle"}, {"measurement": "Emax, cAMP efficacy assay in Saos-2 cells (7T, trifluoroacetate salt) (relative to control (SEQ ID NO: 32))", "setting": "Saos-2 PTH1R", "result": 1.2}, {"measurement": "pEC50, cAMP efficacy assay in Saos-2 cells (7T, trifluoroacetate salt)", "setting": "Saos-2 PTH1R", "result": "7.3 -log(M)"}]}
{"binder": "B3", "values": [{"measurement": "CYP2D6 activity (% of vehicle), dextrorphan formation rate in human liver microsomes, 10 µM peptide", "setting": "CYP2D6", "result": "48 % of vehicle"}, {"measurement": "Emax, cAMP efficacy assay in Saos-2 cells (35T, trifluoroacetate salt) (relative to control (SEQ ID NO: 32))", "setting": "Saos-2 PTH1R", "result": 1.2}, {"measurement": "pEC50, cAMP efficacy assay in Saos-2 cells (35T, trifluoroacetate salt)", "setting": "Saos-2 PTH1R", "result": "5.09 -log(M)"}]}
{"binder": "B4", "values": [{"measurement": "CYP2D6 activity (% of vehicle), dextrorphan formation rate in human liver microsomes, 10 µM peptide", "setting": "CYP2D6", "result": "82 % of vehicle"}, {"measurement": "Emax, cAMP efficacy assay in Saos-2 cells (41T, trifluoroacetate salt) (relative to control (SEQ ID NO: 32))", "setting": "Saos-2 PTH1R", "result": 0.99}, {"measurement": "pEC50, cAMP efficacy assay in Saos-2 cells (41T, trifluoroacetate salt)", "setting": "Saos-2 PTH1R", "result": "7.19 -log(M)"}]}
{"binder": "H-[Ac5c]V[Aib]EIQLLHQ[hArg]AKWLND-NH2 (lactam 13-17; also: acetate and trifluoroacetate salts)", "note": "[H-Ac5c-Val-Aib-Glu-Ile-Gln-Leu-Leu-His-Gln-Har-Ala-Lys( )-Trp-Leu-Asn-Asp( )-NH2]", "values": [{"measurement": "CYP2D6 activity (% of vehicle), dextrorphan formation rate in human liver microsomes, 10 µM peptide", "setting": "CYP2D6", "result": "90 % of vehicle"}, {"measurement": "Emax, cAMP efficacy assay in Saos-2 cells (19A/T, acetate/trifluoroacetate salts) (relative to control (SEQ ID NO: 32))", "setting": "Saos-2 PTH1R", "result": 1.05}, {"measurement": "pEC50, cAMP efficacy assay in Saos-2 cells (19A/T, acetate/trifluoroacetate salts)", "setting": "Saos-2 PTH1R", "result": "7.99 -log(M)"}]}
{"binder": "B5", "values": [{"measurement": "CYP2D6 activity (% of vehicle), dextrorphan formation rate in human liver microsomes, 10 µM peptide", "setting": "CYP2D6", "result": "29 % of vehicle"}, {"measurement": "CYP2D6 activity (% of vehicle), dextrorphan formation rate in human liver microsomes, 10 µM peptide", "setting": "CYP2D6; record 2", "result": "67 % of vehicle"}, {"measurement": "Emax, cAMP efficacy assay in Saos-2 cells (2A, acetate salt) (relative to control (SEQ ID NO: 32))", "setting": "Saos-2 PTH1R", "result": 0.99}, {"measurement": "Emax, cAMP efficacy assay in Saos-2 cells (2C, chloride salt) (relative to control (SEQ ID NO: 32))", "setting": "Saos-2 PTH1R", "result": 0.94}, {"measurement": "Emax, cAMP efficacy assay in Saos-2 cells (2T, trifluoroacetate salt) (relative to control (SEQ ID NO: 32))", "setting": "Saos-2 PTH1R", "result": 0.7}, {"measurement": "Emax, cAMP efficacy assay in Saos-2 cells (42T, trifluoroacetate salt) (relative to control (SEQ ID NO: 32))", "setting": "Saos-2 PTH1R", "result": 1.03}, {"measurement": "pEC50, cAMP efficacy assay in Saos-2 cells (2A, acetate salt)", "setting": "Saos-2 PTH1R", "result": "8.2 -log(M)"}, {"measurement": "pEC50, cAMP efficacy assay in Saos-2 cells (2C, chloride salt)", "setting": "Saos-2 PTH1R", "result": "8.18 -log(M)"}, {"measurement": "pEC50, cAMP efficacy assay in Saos-2 cells (2T, trifluoroacetate salt)", "setting": "Saos-2 PTH1R", "result": "8.18 -log(M)"}, {"measurement": "pEC50, cAMP efficacy assay in Saos-2 cells (42T, trifluoroacetate salt)", "setting": "Saos-2 PTH1R", "result": "7.68 -log(M)"}, {"measurement": "EC50, cAMP in an osteoblast-like cell line (MC3T3-E1)", "setting": "[1]", "result": 1, "unit": "nM"}, {"measurement": "Emax, cAMP efficacy assay in MC3T3-E1 cells", "setting": "[1]", "result": 4.9, "unit": "pmol/well"}, {"measurement": "agonist potency relative to SEQ ID NO: 2, cAMP in MC3T3-E1 cells", "setting": "[1]", "result": 6, "unit": "fold weaker"}, {"measurement": "pEC50, cAMP efficacy assay in MC3T3-E1 cells", "setting": "[1]", "result": "9 -log(M)"}, {"measurement": "Emax, cAMP efficacy assay in MC3T3-E1 cells", "setting": "[1]; record 2", "result": 5.7, "unit": "pmol/well"}, {"measurement": "pEC50, cAMP efficacy assay in MC3T3-E1 cells", "setting": "[1]; record 2", "result": "8.2 -log(M)"}]}
{"binder": "B6", "values": [{"measurement": "CYP2D6 activity (% of vehicle), dextrorphan formation rate in human liver microsomes, 10 µM peptide", "setting": "CYP2D6", "result": "22 % of vehicle"}, {"measurement": "Emax, cAMP efficacy assay in Saos-2 cells (31T, trifluoroacetate salt) (relative to control (SEQ ID NO: 32))", "setting": "Saos-2 PTH1R", "result": 1.07}, {"measurement": "pEC50, cAMP efficacy assay in Saos-2 cells (31T, trifluoroacetate salt)", "setting": "Saos-2 PTH1R", "result": "7.66 -log(M)"}, {"measurement": "Emax, cAMP efficacy assay in MC3T3-E1 cells", "setting": "[1]", "result": 4.5, "unit": "pmol/well"}, {"measurement": "pEC50, cAMP efficacy assay in MC3T3-E1 cells", "setting": "[1]", "result": "8.4 -log(M)"}]}
